The nature of this data set: total protein half-life in vivo (active degradation + dilution); higher = more stable protein.
[1] abbreviates: E. coli NCM3722 delta-clpP, growth: N-lim chemostat, doubling time 6 h.
The mark [2] stands for this setting: E. coli NCM3722 delta-lon, growth: N-lim chemostat, doubling time 6 h.
[3] abbreviates: E. coli NCM3722 delta-smpB, growth: N-lim chemostat, doubling time 6 h.
Setting [4] is: wild type E. coli NCM3722, growth: C-lim chemostat, doubling time 3 h.
Where [5] appears, read: wild type E. coli NCM3722, growth: C-lim chemostat, doubling time 12 h.
Setting [6] is: wild type E. coli NCM3722, growth: N-lim chemostat, doubling time 12 h.
[7] abbreviates: wild type E. coli NCM3722, growth: P-lim chemostat, doubling time 6 h.
Setting [8] is: E. coli NCM3722 delta-clpP delta-lon delta-hslV, growth: N-lim chemostat, doubling time 6 h.
Setting [9] is: wild type E. coli NCM3722, growth: C-lim chemostat, doubling time 6 h.
Setting [10] is: wild type E. coli NCM3722, growth: N-lim chemostat, doubling time 6 h.
Where [11] appears, read: wild type E. coli NCM3722, growth: P-lim chemostat, doubling time 12 h.
The mark [12] stands for this setting: E. coli NCM3722 delta-hslV, growth: N-lim chemostat, doubling time 6 h.

± gives the standard deviation of the averaged measurements.

As to “MKIISFVLPCLLVLAGCSTPSQPEAPKPPQIGMANPASVYCQQKGGTLIPVQTAQGVSNNCKLPGGETIDEWALWRRDHPAGEK”, the “total protein half-life in vivo” value reads like this: under setting [1], greater than 8 h; under setting [2], 6.51 h; under setting [3], 5.85 h; under setting [4], 2.68 h; under setting [5], 15.8 ± 0.2 h; under setting [6], 14.4 ± 0.2 h. Also, the “total protein half-life in vivo” value under setting [7] amounted to 6.22 h.
Consider “MLYGFSGVILQGALVTLELAISSVVLAVIIGLIGAGGKLSQNRLSGLIFEGYTTLIRGVPDLVLMLLIFYGLQIALNTVTEAMGVGQIDIDPMVAGIITLGFIYGAYFTETFRGAFMAVPKGHIEAATAFGFTRGQVFRRIMFPSMMRYALPGIGNNWQVILKSTALVSLLGLEDVVKATQLAGKSTWEPFYFAIVCGVIYLVFTTVSNGVLLFLERRYSVGVKRADL”, for which the “total protein half-life in vivo” value amounted to 5.69 ± 0.1 h under setting [8]; 6.04 ± 0.29 h under setting [1]; 6.66 ± 0.46 h under setting [2]; 5.85 ± 0.34 h under setting [3]; 3.09 ± 0.16 h under setting [4]; 5.6235 ± 0.0025 h under setting [9]. In addition, the “total protein half-life in vivo” value turned out to be 11.5 ± 2.1 h under setting [5]; 6.17 ± 0.47 h under setting [10]; 12.8 ± 2.3 h under setting [6]; 5.65 ± 0.36 h under setting [7]; 11.2 ± 2.3 h under setting [11].
Consider “MASGDLVRYVITVMLHEDTLTEINELNNYLTRDGFLLTMTDDEGNIHELGTNTFGLISTQSEEEIRELVSGLTQSATGKDPEITITTWEEWNSNRK”, for which the “total protein half-life in vivo” value under setting [8] is 6.09 ± 0.66 h; the “total protein half-life in vivo” value under setting [1] amounted to 4.87 h; the “total protein half-life in vivo” value under setting [12] amounted to 4.69 h; the “total protein half-life in vivo” value under setting [3] was found to be 4.44 ± 0.47 h; the “total protein half-life in vivo” value under setting [4] was 3.04 ± 0.33 h; the “total protein half-life in vivo” value under setting [9] stood at 4.88 ± 0.37 h. Further, the “total protein half-life in vivo” value is, setting by setting: under setting [5], 10.1 h; under setting [10], 6.08 h; under setting [6], 8.21 h; under setting [7], 4.86 ± 0.83 h; under setting [11], 11.1 ± 0.71 h.
On to “MFLINGHKQESLAVSDRATQFGDGCFTTARVIDGKVSLLSAHIQRLQDACQRLMISCDFWPQLEQEMKTLAAEQQNGVLKVVISRGSGGRGYSTLNSGPATRILSVTAYPAHYDRLRNEGITLALSPVRLGRNPHLAGIKHLNRLEQVLIRSHLEQTNADEALVLDSEGWVTECCAANLFWRKGNVVYTPRLDQAGVNGIMRQFCIRLLAQSSYQLVEVQASLEESLQADEMVICNALMPVMPVCACGDVSFSSATLYEYLAPLCERPN”, for which the “total protein half-life in vivo” value runs as follows: under setting [8], 5.13 ± 0.82 h; under setting [1], 3.87 ± 0.15 h; under setting [2], 4.279 ± 0.035 h; under setting [3], 3.89 ± 0.18 h; under setting [4], 3.04 ± 0.24 h; under setting [9], 5.58 ± 0.27 h. Besides, the “total protein half-life in vivo” value reads like this: under setting [5], 10.9 ± 0.86 h; under setting [10], 3.82 ± 0.069 h; under setting [6], 6.33 ± 0.35 h; under setting [7], 6.45 ± 1.4 h; under setting [11], 10.7 ± 1 h.
For the sequence “MITNYEATVVTTDDIVHEVNLEGKRIGYVIKTENKETPFTVVDIDGPSGNVKTLDEGVKKMCLVHIGKNLPAEKKAEFLATLIAMKLKGEI”, the “total protein half-life in vivo” value under setting [9] stood at 5.13 h and the “total protein half-life in vivo” value under setting [5] is 10.3 h.
Consider “MPHSDELDAGNVLAVENLNIAFMQDQQKIAAVRNLSFSLQRGETLAIVGESGSGKSVTALALMRLLEQAGGLVQCDKMLLQRRSREVIELSEQNAAQMRHVRGADMAMIFQEPMTSLNPVFTVGEQIAESIRLHQNASREEAMVEAKRMLDQVRIPEAQTILSRYPHQLSGGMRQRVMIAMALSCRPAVLIADEPTTALDVTIQAQILQLIKVLQKEMSMGVIFITHDMGVVAEIADRVLVMYQGEAVETGTVEQIFHAPQHPYTRALLAAVPQLGAMKGLDYPRRFPLISLEHPAKQAPPIEQKTVVDGEPVLRVRNLVTRFPLRSGLLNRVTREVHAVEKVSFDLWPGETLSLVGESGSGKSTTGRALLRLVESQGGEIIFNGQRIDTLSPGKLQALRRDIQFIFQDPYASLDPRQTIGDSIIEPLRVHGLLPGKDAAARVAWLLERVGLLPEHAWRYPHEFSGGQRQRICIARALALNPKVIIADEAVSALDVSIRGQIINLLLDLQRDFGIAYLFISHDMAVVERISHRVAVMYLGQIVEIGPRRAVFENPQHPYTRKLLAAVPVAEPSRQRPQRVLLSDDLPSNIHLRGEEVAAVSLQCVGPGHYVAQPQSEYAFMRR”, for which the “total protein half-life in vivo” value reads like this: under setting [8], 5.29 ± 0.17 h; under setting [1], 3.52 ± 0.092 h; under setting [12], 4 ± 0.11 h; under setting [2], 4.37 ± 0.63 h; under setting [3], 3.88 ± 0.28 h; under setting [4], 2.37 ± 0.21 h. Further, the “total protein half-life in vivo” value runs as follows: under setting [9], 3.9527 ± 0.00027 h; under setting [5], 6.1 ± 0.44 h; under setting [10], 3.6 ± 0.015 h; under setting [6], 7.19 ± 1.5 h; under setting [7], 4.059 ± 0.034 h; under setting [11], 6.87 ± 0.34 h.
As to “MFPFRRNVLAFAALLALSSPVLAGKLAIVIDDFGYRPHNENQVLAMPSAISVAVLPDSPHAREMATKAHNSGHEVLIHLPMAPLSKQPLEKNTLRPEMSSDEIERIIRSAVNNVPYAVGINNHMGSKMTSNLFGMQKVMQALERYNLYFLDSVTIGNTQAMRAAQGTGVKVIKRKVFLDDSQNEADIRVQFNRAIDLARRNGSTIAIGHPHPATVRVLQQMVYNLPPDITLVKASSLLNEPQVDTSTPPKNAVPDAPRNPFRGVKLCKPKKPIEPVYANRFFEVLSESISQSTLIVYFQHQWQGWGKQPEAAKFNASAN”, the “total protein half-life in vivo” value stood at 5.42 ± 0.15 h under setting [8]; 6.23 h under setting [1]; 6.09 ± 0.91 h under setting [12]; 4.79 h under setting [3]; 3.38 h under setting [4]; 11.2 ± 1.3 h under setting [5]. Also, the “total protein half-life in vivo” value runs as follows: under setting [10], 6.68 ± 0.97 h; under setting [6], 9.34 h; under setting [11], 8.02 h.
On to “MMYRIRNWLVATLLLLCTPVGAATLSDIQVSNGNQQARITLSFIGDPDYAFSHQSKRTVALDIKQTGVIQGLPLLFSGNNLVKAIRSGTPKDAQTLRLVVDLTENGKTEAVKRQNGSNYTVVFTINADVPPPPPPPPVVAKRVETPAVVAPRVSEPARNPFKTESNRTTGVISSNTVTRPAARATANTGDKIIIAIDAGHGGQDPGAIGPGGTREKNVTIAIARKLRTLLNDDPMFKGVLTRDGDYFISVMGRSDVARKQNANFLVSIHADAAPNRSATGASVWVLSNRRANSEMASWLEQHEKQSELLGGAGDVLANSQSDPYLSQAVLDLQFGHSQRVGYDVATSMISQLQRIGEIHKRRPEHASLGVLRSPDIPSVLVETGFISNNSEERLLASDDYQQQLAEAIYKGLRNYFLAHPMQSAPQGATAQTASTVTTPDRTLPN”, for which the “total protein half-life in vivo” value under setting [8] is 2.15 ± 0.036 h; the “total protein half-life in vivo” value under setting [1] was 2.05 ± 0.41 h; the “total protein half-life in vivo” value under setting [12] came to 2.71 ± 1.6 h; the “total protein half-life in vivo” value under setting [2] came out at 1.97 ± 0.085 h; the “total protein half-life in vivo” value under setting [3] is 1.74 ± 0.34 h; the “total protein half-life in vivo” value under setting [4] was 1.64 ± 0.18 h. Moreover, the “total protein half-life in vivo” value is, setting by setting: under setting [9], 2.63 ± 0.23 h; under setting [5], 4.87 ± 1.5 h; under setting [10], 2.54 ± 0.74 h; under setting [6], 2.65 ± 0.31 h; under setting [7], 3.4 ± 3.2 h; under setting [11], 2.92 ± 1.1 h.

For the origin of these results see the supplement of paper PMC11246515.
